Measurements taken from patent US20210403547A1 (Eli Lilly, published 2021).

Legend:
Mouse Epiregulin [1] = molecular target: T1, Mouse Epiregulin (mouse (Mus musculus), UniProt Q61521 56-101); experiment: cell-based or functional assay
Mouse TGF-alpha [2] = molecular target: T2, Mouse TGF-alpha (mouse (Mus musculus), UniProt P48030 39-88); experiment: cell-based or functional assay
Rat TGF-alpha [3] = molecular target: T3, Rat TGF-alpha (rat, UniProt P01134 39-88); experiment: cell-based or functional assay
rat epiregulin = rat epiregulin (rat, UniProt Q9Z0L5 56-101, limits assumed); experiment: cell-based or functional assay
rat epigen = rat epigen (rat); experiment: cell-based or functional assay
Met-human Epiregulin [4] = molecular target: T4, Met-human Epiregulin (human, UniProt O14944 63-108); experiment: cell-based or functional assay
cynomolgus monkey epigen = cynomolgus monkey epigen (cynomolgus monkey, UniProt G7P5K4 23-110); experiment: cell-based or functional assay
Cynomolgus Epiregulin [5] = molecular target: T5, Cynomolgus Epiregulin (cynomolgus (Macaca fascicularis), UniProt O14944 63-108 (human entry)); experiment: cell-based or functional assay
Mouse Epiregulin [6] = molecular target: T1, Mouse Epiregulin; experiment: SPR (Biacore), antibody captured via anti-Fc on chip, ligand injected, KD = koff/kon, 25 C
Method: (§1) Biacore T2000 instrument (BIAcore® AB, Upsala, Sweden), reagents and Biacore T2000 Evaluation Software Ver 4.1 are used for the Surface Plasmon Resonance analysis. A CMS chip is prepared using manufacturer's EDC/NHS amine coupling method. The surfaces of all four flow cells are activated by injecting a 1:1 mixture of EDC/NHS for 7 minutes at 10 μL/min. […] Un-reacted sites are blocked with a 7 minute injection of ethanolamine at 10 μL/min. Injections of 3×20 seconds of glycine pH 1.5 at 30 μL/min are used to remove non-covalently associated protein. The running buffer is HBS-EP [10 mM HEPES, 150 mM Sodium Chloride, 3 mM EDTA, 0.005% Polysorbate 20].
(§2) Duplicate injections of each ligand concentration are injected at 30 μL/min for 300 seconds followed by a dissociation phase. […] Regeneration is performed by injecting 10 mM glycine pH 1.5 for 3×20 seconds at 30 μL/min over all flowcell.
(§3) Reference-subtracted data are collected as Fc2-Fc1. The measurements are obtained at 25° C. The on-rate (kₒₙ) and off-rate (koff) for each ligand are evaluated using a “1:1 (Langmuir) Binding” binding model. The affinity (KD) is calculated from the binding kinetics according to the relationship: KD=koff/kₒₙ.

Rat TGF-alpha [7] = molecular target: T3, Rat TGF-alpha; experiment: as above
Method: as §1, §2, §3

Met-human Epiregulin [8] = molecular target: T4, Met-human Epiregulin; experiment: as above
Method: as §1, §2, §3

Cynomolgus Epiregulin [9] = molecular target: T5, Cynomolgus Epiregulin; experiment: as above
Method: as §1, §2, §3

Mouse Epiregulin [10] = molecular target: T1, Mouse Epiregulin; experiment: cell-based or functional assay; remark: listed apart in the source
Rat TGF-alpha [11] = molecular target: T3, Rat TGF-alpha; experiment: cell-based or functional assay; remark: listed apart in the source
Human EGF = Human EGF (human, UniProt P01133 971-1023); experiment: cell-based or functional assay
Human HBEGF = Human HBEGF (human, UniProt Q99075 63-148); experiment: cell-based or functional assay
Met-human Epiregulin [12] = molecular target: T4, Met-human Epiregulin; experiment: cell-based or functional assay; remark: listed apart in the source
Human Betacellulin = molecular target: T6, Human Betacellulin (human, UniProt P35070 32-111); experiment: cell-based or functional assay
T6 sequence: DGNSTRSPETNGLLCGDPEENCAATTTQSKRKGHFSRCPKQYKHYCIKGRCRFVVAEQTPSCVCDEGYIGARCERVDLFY

Human Amphiregulin = molecular target: T7, Human Amphiregulin (human, UniProt P15514 101-187); experiment: cell-based or functional assay
T7 sequence: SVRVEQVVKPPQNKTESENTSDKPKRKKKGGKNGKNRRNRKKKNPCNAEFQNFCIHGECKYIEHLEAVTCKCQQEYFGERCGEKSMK

Mouse Epigen = Mouse Epigen (mouse (Mus musculus), UniProt Q924X1 53-103); experiment: SPR, 25 C
Mouse Epiregulin [13] = molecular target: T1, Mouse Epiregulin; experiment: SPR (Biacore), antibody captured on chip, ligand injected, 1:1 Langmuir fit, 25 C
Method: as §1
(§4) Duplicate injections of each ligand concentration are injected at 30 μL/min for 300 seconds followed by a dissociation phase. […] Regeneration is performed by injecting 10 mM glycine pH 1.5 for 30 seconds at 30 μL/min over all flowcell.
as §3

Mouse TGF-alpha [14] = molecular target: T2, Mouse TGF-alpha; experiment: as above
Method: as §1, §4, §3

Human TGF-alpha = Human TGF-alpha (human, UniProt P01135 40-89); experiment: cell-based or functional assay
Mouse Epiregulin [15] = molecular target: T1, Mouse Epiregulin; experiment: SPR (Biacore), antibody captured on chip, ligand injected, KD = koff/kon, 25 C
Method: as §1, §4, §3

Mouse TGF-alpha [16] = molecular target: T2, Mouse TGF-alpha; experiment: as above
Method: as §1, §4, §3

B1: Antibody I (antibody, human IgG4 S228P, kappa, F234A L235A, V domains shown)
VH: QVQLVQSGAEVKKPGSSVKVSCKASGYTFTDAYINWVRQAPGQGLEWMGWIWPGPVITYYNPKFKGRVTITADKSTSTAYMELSSLRSEDTAVYYCARREVLSPFAYWGQGTTVTVSS
VL: DIVMTQSPDSLAVSLGERATINCRSSQSIVHSTGNTYLEWYQQKPGQPPKLLIYKVSNRFSGVPDRFSGSGSGTDFTLTISSLQAEDVAVYYCFHGTHVPYTFGGGTKVEIKR
notes: Humanized IgG4 monoclonal antibody
Q: Which “IC50, neutralization of ligand-stimulated myofibroblast proliferation” value (Mouse Epiregulin [1]) does the source give for B1 here?
A: < 350 nM

Q: What about the “IC50, neutralization of ligand-stimulated myofibroblast proliferation” value (Mouse TGF-alpha [2]) of the same binder?
A: < 0.5 nM

Q: And the “IC50, neutralization of ligand-stimulated myofibroblast proliferation” value (Rat TGF-alpha [3])?
A: < 0.5 nM

Q: What about the “IC50, neutralization of ligand-stimulated myofibroblast proliferation” value (rat epiregulin) of the same binder?
A: < 350 nM

Q: What about the “IC50, neutralization of ligand-stimulated myofibroblast proliferation” value (rat epigen) of the same binder?
A: < 850 nM

Q: And the “IC50, neutralization of ligand-stimulated myofibroblast proliferation” value (Met-human Epiregulin [4])?
A: < 3.5 nM

Q: What about the “IC50, neutralization of ligand-stimulated myofibroblast proliferation” value (cynomolgus monkey epigen) of the same binder?
A: < 850 nM

Q: What about the “IC50, neutralization of ligand-stimulated myofibroblast proliferation” value (Cynomolgus Epiregulin [5]) of the same binder?
A: < 3.5 nM

Q: What about the Kd (Mouse Epiregulin [6]) of the same binder?
A: 342 nM

Q: And the Kd (Rat TGF-alpha [7])?
A: 0.0705 nM

Q: What about the Kd (Met-human Epiregulin [8]) of the same binder?
A: 1.29 nM

Q: What about the Kd (Cynomolgus Epiregulin [9]) of the same binder?
A: 1.05 nM

Q: And the “IC50, neutralization of ligand-stimulated MFc7 cell proliferation (BrDU incorporation), ligand at 0.5 nM” value (shortened to “IC50, neutralization … at 0.5 nM”) (Mouse Epiregulin [10])?
A: 334 nM

Q: What about the “IC50, neutralization … at 0.5 nM” value (Rat TGF-alpha [11]) of the same binder?
A: 0.19 nM

Q: What about the “IC50, neutralization … at 0.5 nM” value (Human EGF) of the same binder?
A: > 2000 nM

Q: What about the “IC50, neutralization … at 0.5 nM” value (Human HBEGF) of the same binder?
A: > 2000 nM

Q: What about the “IC50, neutralization … at 0.5 nM” value (Met-human Epiregulin [12]) of the same binder?
A: 3.15 nM

Q: And the “IC50, neutralization … at 0.5 nM” value (Human Betacellulin)?
A: > 2000 nM

Q: What about the “IC50, neutralization of ligand-stimulated MFc7 cell proliferation (BrDU incorporation), ligand at 60 nM” value (Human Amphiregulin) of the same binder?
A: > 2000 nM

B2: Antibody III (antibody, mouse IgG1, kappa, V domains shown)
VH: QVQLQQSGPELVKPGASVKISCKASGYTFTDAYINWVKQRPGQGLEWIGWIWPGPVITYYNPKFKGKATLTVDKSSSTAYMLLSSLTSEDSAFYFCARREVLSPFAYWGQGTLVTVSA
VL: DVLMTQTPLSLPVSLGDQASISCRSSQSIVHSTGNTYLEWYLQKPGQSPKLLIYKVSNRFSGVPDRFSGSGSGTDFTLKISRVEAEDLGVYYCFHGTHVPYTFGGGTKLEIKR
notes: Mouse monoclonal antibody with the same CDRs as Antibody I; also called mouse antibody
Q: For B2, which Kd (Mouse Epigen) is on record?
A: 365 nM

Q: And the koff (Mouse Epiregulin [13])?
A: 0.0141 s⁻¹

Q: What about the kon (Mouse Epiregulin [13]) of the same binder?
A: 65500 M⁻¹ s⁻¹

Q: And the koff (Mouse TGF-alpha [14])?
A: 2.02e-05 s⁻¹

Q: What about the kon (Mouse TGF-alpha [14]) of the same binder?
A: 541000 M⁻¹ s⁻¹

Q: What about the “IC50, neutralization … at 0.5 nM” value (Mouse Epiregulin [10]) of the same binder?
A: 214 nM

Q: And the “IC50, neutralization … at 0.5 nM” value (Rat TGF-alpha [11])?
A: 0.13 nM

Q: And the “IC50, neutralization of ligand-stimulated MFc7 cell proliferation (BrDU incorporation)” value (Met-human Epiregulin [12])?
A: 1.12 nM

Q: What about the “IC50, neutralization of ligand-stimulated MFc7 cell proliferation (BrDU incorporation)” value (Human TGF-alpha) of the same binder?
A: 0.52 nM

Q: And the Kd (Mouse Epiregulin [15])?
A: 215 nM

Q: And the Kd (Mouse TGF-alpha [16])?
A: 0.038 nM
